Data on six molecules can be found in US10428320B2, “Crystal structure of Staphylococcus aureus Autolysin E, method of producing the crystal and its use in screening methods” (J. Stefan Institute, priority 2015, dated 2019).

Positions count from the first letter of the chain named. Names and notes keep the numbering of the source. “Also recorded” adds a separate entry of the source.

The test system of assay [1] is S. aureus purified peptidoglycan. The experiment in a line: Degradation of Remazol Brilliant Blue labeled S. aureus peptidoglycan (cell wall substrate), colorimetric. The class given is biochemical, Staphylococcus aureus. The conditions noted are these: mutants in comparison with the native enzyme. An excerpt: • AtlE is 259 amino acid long protein encoded by the SAV2307 gene loci in the genome of S. aureus strain Mu50. The truncated sequences of glucosaminidase domains of AtlE, lacking the first 34 residues and glu AtlA from S1012 onwards, include additional four amino acids (SAAA, i.e. Ser-Ala-Ala-Ala) that belong to the recognition site of TEV protease. The nucleotide sequences were amplified from the genomic DNA of S. aureus Mu50 using KOD Hot Start Polymerase and cloned into pMCSG 7 plasmid in the frame with N-terminal His-Tag as described [Eschenfeldt et al., 2009]. The mutants were prepared by the overlap extension method [Ho et al., 1989]. The proteins were expressed in BL21(DE3) E. coli expression strain grown in YZM5052 auto induction medium. To facilitate the expression of proteins in soluble form, the cells were initially grown at 37° C. When optical density (OD) measured at 600 nm reached the value of 1, the cells were transferred to 25° C. After 16 hours the cells were pelleted by centrifugation (15 minutes at 7000× g), re-suspended in the buffer A ([…] Tris, 0.4 M NaCl, pH 7.5) supplemented with 1 mg/ml of lysozyme, and frozen and disrupted by the freezing thawing cycles and sonication. The proteins were purified from the cell lysate on AKTAxpress FPLC system (GE Healthcare) using two-step purification protocol. The first purification step was Ni^2+-affinity chromatography on HiTrap IMAC FF column (GE Healthcare) equilibrated in buffer A with 10 mM imidazole. […] 2. […] The degradation products were analyzed by mass spectroscopy. A single cleavage between the central NAG-NAM residues should indicate the classic N-acetyl-glucosaminidase activity by generating the NAM-NAG and NAM-NAGred disaccharides, whereas NAMred and NAG-NAM-NAGred would indicate the muraminidase activity. […] 3. Isolation of S. aureus Peptidoglycan • S. aureus cells were grown overnight in Brain Hearth Infusion Broth (BHI) (37° C., 250 rpm) pelleted by centrifugation (15 minutes at 6000× g), washed three times with the 30 mM Tris, 0.4 M NaCl buffer and then re-suspended in the same buffer. After heat inactivation, the insoluble pellet was re-suspended in 4% SDS and incubated 30 minutes at 80° C. After 30 minutes of centrifugation at 40,000× g, the pellet was re-suspended and washed six times in water. Proteins that remained associated with the peptidoglycan were digested overnight by incubation with trypsin (1 mg/ml) in 30 mM Tris, 0.4 M NaCl, 10 mM MgCl2, pH 7.5 buffer. After pelleting (30 minutes at 40000× g) peptidoglycan was treated overnight with 5 ml 40% aqueous hydrogen fluoride to remove teichoic acid, pelleted again (30 minutes at 40000× g) and washed extensively with water. Saturated suspension of the pure peptidoglycan solution in water was stored at −20° C. 4. Biochemical Peptidoglycan Degradation and Labeling with Remazol Brilliant Blue • For the colorimetric assays, peptidoglycan was labeled with Remazol Brilliant Blue as described [Odintsov et al., 2004]. In short, 50 ul of water suspension of Remazol Brilliant Blue labeled peptidoglycan was mixed with 10 ul of 1 M buffer solutions at pH of […] of 4 M NaCl, different amounts of enzymes and filled with water to the final volume […]. The final concentration of buffer and NaCl in the reaction mixture was therefore 100 mM.

A short description of assay [2]: Digestion of synthetic tetrasaccharide substrate, products analyzed by mass spectroscopy. Format: biochemical. The conditions noted are these: mass spectroscopy of degradation products. An excerpt: (§1) • AtlE is 259 amino acid long protein encoded by the SAV2307 gene loci in the genome of S. aureus strain Mu50. The truncated sequences of glucosaminidase domains of AtlE, lacking the first 34 residues and glu AtlA from S1012 onwards, include additional four amino acids (SAAA, i.e. Ser-Ala-Ala-Ala) that belong to the recognition site of TEV protease. The nucleotide sequences were amplified from the genomic DNA of S. aureus Mu50 using KOD Hot Start Polymerase and cloned into pMCSG 7 plasmid in the frame with N-terminal His-Tag as described [Eschenfeldt et al., 2009]. The mutants were prepared by the overlap extension method [Ho et al., 1989]. The proteins were expressed in BL21(DE3) E. coli expression strain grown in YZM5052 auto induction medium. To facilitate the expression of proteins in soluble form, the cells were initially grown at 37° C. When optical density (OD) measured at 600 nm reached the value of 1, the cells were transferred to 25° C. After 16 hours the cells were pelleted by centrifugation (15 minutes at 7000× g), re-suspended in the buffer A ([…] Tris, 0.4 M NaCl, pH 7.5) supplemented with 1 mg/ml of lysozyme, and frozen and disrupted by the freezing thawing cycles and sonication. The proteins were purified from the cell lysate on AKTAxpress FPLC system (GE Healthcare) using two-step purification protocol. […] The degradation products were analyzed by mass spectroscopy. […]

A short description of assay [3]: Digestion of synthetic hexa-NAG substrate, products analyzed by mass spectroscopy. The class given is biochemical. The conditions noted are these: mass spectroscopy of degradation products.
Description: as §1

B1: E138A (protein)
chain: MKKNFKLRISTLLLIVILVVFAVLLIVNETKLFKNDVNYSFDEAVSMQQGKGIVQTKEEDGKFVEANNNEIAKAMTISHKDNDMKYMDITEKVPMSESEVNQLLKGKGILENRGKVFLEAQEKYEVNVIYLVSHALVATGNGKSELAKGIKDGKKRYYNFFGIGAFDSSAVRSGKSYAEKEQWTSPDKAIIGGAKFIRNEYFENNQLNLYQMRWNPENPAQHQYASDIRWADKIAKLMDKSYKQFGIKKDDIRQTYYK
For B1, the “activity against the cell wall substrate (S. aureus peptidoglycan)” value (from here on “activity against the cell wall substrate”) in assay [1] is “abolished activity”; in assay [1] (listed as E138), “zero activity”.

B2: Y201A (protein)
chain: B1 chain with A138E, Y201A
As for B2, the “activity against the cell wall substrate” value in assay [1] was “completely inactive”; in assay [1] (listed as Y201) it was “zero activity; also recorded: abolished the enzymatic activity”.

B3: D227A (protein)
chain: B1 chain with A138E, D227A
Regarding B3, in assay [1], the “activity against the cell wall substrate” value was “halved activity”.

B4: D167A (protein)
chain: B1 chain with A138E, D167A
As to B4, the “activity against the cell wall substrate” value in assay [1] is reported as “halved activity”.

B5: E145A (protein)
chain: B1 chain with A138E, E145A
On to B5, for which, in assay [1], the “activity against the cell wall substrate” value is listed as “activity of native enzyme; also recorded: activity equivalent to the native enzyme”.

B6: AtlE: recombinant glucosaminidase domain of Autolysin E of S. aureus Mu50, encoded by SAV2307 (protein)
chain: SAAANDVNYSFDEAVSMQQGKGIVQTKEEDGKFVEANNNEIAKAMTISHKDNDMKYMDITEKVPMSESEVNQLLKGKGILENRGKVFLEAQEKYEVNVIYLVSHALVETGNGKSELAKGIKDGKKRYYNFFGIGAFDSSAVRSGKSYAEKEQWTSPDKAIIGGAKFIRNEYFENNQLNLYQMRWNPENPAQHQYASDIRWADKIAKLMDKSYKQFGIKKDDIRQTYYK
For the molecule B6, the “digestion products / specificity on (NAM-NAG)2red” value in assay [2] is reported as “only NAM-NAGred with Mw of 499.21 Da was found”. Further, the “cleavage of (NAG)6” value in assay [3] is “not degraded at all; also recorded: cannot”.
